Experimental data from patent US20140271653A1 (Regeneron, published 2014).

Experiments:
[1] = molecular target: RSV-F of RSV subtype A clinical isolate A1998/12-21 (respiratory syncytial virus subtype A, …); assay: cell-based or functional assay
[2] = molecular target: RSV-F of RSV subtype A clinical isolate A1997/12-35 (respiratory syncytial virus subtype A, …); assay: cell-based or functional assay
[3] = molecular target: RSV-F of RSV subtype A clinical isolate A2001/2-20 (respiratory syncytial virus subtype A, …); assay: cell-based or functional assay
[4] = molecular target: RSV-F of RSV subtype A clinical isolate A2000/3-4 (respiratory syncytial virus subtype A, …); assay: cell-based or functional assay
[5] = molecular target: RSV-F of RSV subtype A clinical isolate A2001/3-12 (respiratory syncytial virus subtype A, …); assay: cell-based or functional assay
[6] = molecular target: RSV-F of RSV subtype A clinical isolate A1998/3-2 (respiratory syncytial virus subtype A, …); assay: cell-based or functional assay
RSV-F.mmh = molecular target: T1, RSV-F.mmh (Respiratory Syncytial Virus); assay: SPR (Biacore), mAb captured via Fc, soluble RSV-F.mmh injected, 25 C
T1 construct: also called recombinant RSV-F; soluble monomeric RSV-F

[7] = molecular target: T2, RSV-F of RSV subtype A strain A2 (1540) (respiratory syncytial virus subtype A, …, UniProt P03420 26-574); assay: cell-based or functional assay
[8] = molecular target: T3, RSV-F of RSV subtype B strain 9320 (respiratory syncytial virus subtype B, …); assay: cell-based or functional assay
[9] = molecular target: RSV-F of RSV subtype B strain 1A2 (respiratory syncytial virus subtype B, …); assay: cell-based or functional assay
[10] = molecular target: RSV-F of RSV subtype B strain 1400 (respiratory syncytial virus subtype B, …); assay: cell-based or functional assay
[11] = molecular target: T4, RSV-F of RSV subtype A strain Long (respiratory syncytial virus subtype A, …, UniProt P12568 26-574); assay: cell-based or functional assay
[12] = molecular target: RSV-F of RSV subtype B strain 18537 (respiratory syncytial virus subtype B, …, UniProt P13843 26-574); assay: cell-based or functional assay
[13] = molecular target: T2, RSV-F of RSV subtype A strain A2 (1540); assay: cell-based or functional assay; remark: listed apart in the source
[14] = molecular target: T2, RSV-F of RSV subtype A strain A2 (1540); assay: cell-based or functional assay; remark: listed apart in the source
[15] = molecular target: T4, RSV-F of RSV subtype A strain Long; assay: cell-based or functional assay; remark: listed apart in the source
[16] = molecular target: T2, RSV-F of RSV subtype A strain A2 (1540); assay: cell-based or functional assay; remark: listed apart in the source
[17] = molecular target: RSV-F S173T of escape mutant RSV/B S173T (respiratory syncytial virus subtype B, …); assay: cell-based or functional assay
[18] = molecular target: RSV-F S173Y of escape mutant RSV/A S173Y (respiratory syncytial virus subtype A, …, UniProt P03420 26-574); assay: cell-based or functional assay
[19] = molecular target: T5, RSV-F of RSV subtype B strain 1580 (respiratory syncytial virus subtype B, …); assay: cell-based or functional assay
[20] = molecular target: RSV-F S173T/T174K of escape mutant RSV/B S173T/T174K (respiratory syncytial virus subtype B, …); assay: cell-based or functional assay
[21] = molecular target: RSV-F T174K of escape mutant RSV/B T174K (respiratory syncytial virus subtype B, …); assay: cell-based or functional assay
[22] = molecular target: T2, RSV-F of RSV subtype A strain A2 (1540); assay: cell-based or functional assay; remark: listed apart in the source
[23] = molecular target: T3, RSV-F of RSV subtype B strain 9320; assay: cell-based or functional assay; remark: listed apart in the source
[24] = molecular target: T5, RSV-F of RSV subtype B strain 1580; assay: cell-based or functional assay; remark: listed apart in the source

B1: Control I (palivizumab sequence) (antibody, V domains shown)
VH: QVTLRESGPALVKPTQTLTLTCTFSGFSLSTSGMSVGWIRQPPGKALEWLADIWWDDKKDYNPSLKSRLTISKDTSKNQVVLKVTNMDPADTATYYCARSMITNWYFDVWGAGTTVTVSS
VL: DIQMTQSPSTLSASVGDRVTITCKCQLSVGYMHWYQQKPGKAPKLLIYDTSKLASGVPSRFSGSGSGTEFTLTISSLQPDDFATYYCFQGSGYPFTFGGGTKLEIKR
notes: also called Control 1; SYNAGIS
IC50 (pM), RSV micro-neutralization, clinical isolate [1]: 580 pM
IC50 (pM), RSV micro-neutralization, clinical isolate [2]: 478 pM
IC50 (pM), RSV micro-neutralization, clinical isolate [3]: 935 pM
IC50 (pM), RSV micro-neutralization, clinical isolate [4]: 899 pM
IC50 (pM), RSV micro-neutralization, clinical isolate [5]: 1260 pM
IC50 (pM), RSV micro-neutralization, clinical isolate [6]: 344 pM
Kd (RSV-F.mmh): 0.0381 µM
t½ (RSV-F.mmh): 4 min
IC50 of blocking viral fusion (antibody added after viral attachment at 4 C, infection read by ELISA) [7]: 0.001 µM
IC50 (pM), RSV micro-neutralization, B/9320 [8]: 338 pM
IC50 (pM), RSV micro-neutralization, B/1A2 [9]: 223 pM
IC50 (pM), RSV micro-neutralization, B/1400 [10]: 113 pM
IC50 (pM), RSV micro-neutralization, A/Long [11]: 752 pM
IC50 (pM), RSV micro-neutralization, B/18537 [12]: 1190 pM
IC50 (pM), RSV micro-neutralization, A/A2 [13]: 2080 pM
IC50 [pM] for RSV A2 Neutralization, Trial 1 [14]: 1820 pM
IC50 [pM] for RSV A2 Neutralization, Trial 2 [14]: 950 pM
IC50 [pM] for RSV A2 Neutralization, Trial 3 [14]: 290 pM
IC50 [pM] for RSV A2 Neutralization, Trial 5 [14]: 160 pM
IC50 [pM] for RSV A2 Neutralization, Trial 6 [14]: 500 pM
IC50 [pM] for RSV A2 Neutralization, Trial 7 [14]: 250 pM
RSV-Long Neutral. IC50 [pM] [15]: 536 pM
RSV-A2 (1540) Neutral. IC50 [pM] [16]: 360 pM
Neutralization IC50, pM (microneutralization, escape mutant) [17]: 1900 pM
Neutralization IC50, pM (microneutralization, escape mutant) [18]: 1710 pM
Neutralization IC50, pM (microneutralization, wt subtype B) [19]: 1900 pM
Neutralization IC50, pM (microneutralization, escape mutant) [20]: 980 pM
Neutralization IC50, pM (microneutralization, escape mutant) [21]: 640 pM
Neutralization IC50, pM (microneutralization, wt subtype A) [22]: 1140 pM
RSV-9320 Neutral. IC50 [pM] [23]: 460 pM
RSV - 1580 Neutral. IC50 [pM] [24]: 375 pM
